Results on 3 molecules are retold here after PMC9097884 (Science Immunology, 2022).

Assay [1] deals with T1, SARS-CoV-2 S receptor-binding domain (RBD, residues 329-538, Wuhan-Hu-1) (SARS-CoV-2 (Wuhan-Hu-1 strain), UniProt P0DTC2).
T1 construct: also called SARS-CoV-2 S RBD domain; not shown: Strep-tag, C-terminal, kept
Description: ELISA. The note with it: both partners purified.

The target in assay [2] is SARS-CoV-2 S1 (residues 1-682, Wuhan-Hu-1) (SARS-CoV-2 (Wuhan-Hu-1 strain), UniProt P0DTC2). The assay can be described thus: ELISA. Particulars: both partners purified. For orientation: In an ELISA, binding on a coated surface is turned into a signal by an enzyme label.

B1: 87G7 human monoclonal antibody (recombinant human IgG1/kappa) (antibody, V domains shown)
VH: EVQLLESGGGLVQPGGSLRLSCVASGFTFSSYVMSWVRQAPGKGLEWVAAISGSGGNTYYADSVKGRFTISRDNSKNTLYLQMNSLRAEDTAVYYCAKEGTYYYGSGSFWGQGTLVTVSS
VL: EIVLTQSPATLSLSPGERATLSCRASQSFHNYLAWYQQKPGRAPRLLIFDASNRATGIPARFSGSGSGTDFTLTISSLEPEDFAVYYCQQRFNWPLTFGGGTKVEIK
notes: also called 87G7 IgG; 87G7 mAb
For B1, the binding result in assay [1] and in assay [2] was “binds” each time.

B2: REGN10987 (recombinant human IgG1/kappa) (antibody, V domains shown)
VH: QVQLVESGGGVVQPGRSLRLSCAASGFTFSNYAMYWVRQAPGKGLEWVAVISYDGSNKYYADSVKGRFTISRDNSKNTLYLQMNSLRTEDTAVYYCASGSDYGDYLLVYWGQGTLVTVSS
VL: QSALTQPASVSGSPGQSITISCTGTSSDVGGYNYVSWYQQHPGKAPKLMIYDVSKRPSGVSNRFSGSKSGNTASLTISGLQSEDEADYYCNSLTSISTWVFGGGTKLTVL
Consider B2, for which the binding result in assay [2] was “binds”.

B3: REGN10933 (recombinant human IgG1/kappa) (antibody, V domains shown)
VH: QVQLVESGGGLVKPGGSLRLSCAASGFTFSDYYMSWIRQAPGKGLEWVSYITYSGSTIYYADSVKGRFTISRDNAKSSLYLQMNSLRAEDTAVYYCARDRGTTMVPFDYWGQGTLVTVSS
VL: DIQMTQSPSSLSASVGDRVTITCQASQDITNYLNWYQQKPGKAPKLLIYAASNLETGVPSRFSGSGSGTDFTFTISGLQPEDIATYYCQQYDNLPLTFGGGTKVEIK
notes: source: HEK-293T, transient transfection, purified (Protein A Sepharose)
For the molecule B3, the binding result in assay [1] and in assay [2] was “binds” each time.
